Reference: patent publication US20020151498A1

Key:
[1] = target: LSR alpha subunit (68 kDa) (rat) (UniProt Q9WU74); assay: ultracentrifugation assay, in vitro translated labeled subunit with LDL, with against without oleate
[2] = target: LSR beta subunit (56 kDa) (rat) (UniProt Q9WU74); assay: as above
Sequence of LSR beta subunit (56 kDa) (rat) (Q9WU74 other isoform, or with tags, fused parts or gaps limits assumed): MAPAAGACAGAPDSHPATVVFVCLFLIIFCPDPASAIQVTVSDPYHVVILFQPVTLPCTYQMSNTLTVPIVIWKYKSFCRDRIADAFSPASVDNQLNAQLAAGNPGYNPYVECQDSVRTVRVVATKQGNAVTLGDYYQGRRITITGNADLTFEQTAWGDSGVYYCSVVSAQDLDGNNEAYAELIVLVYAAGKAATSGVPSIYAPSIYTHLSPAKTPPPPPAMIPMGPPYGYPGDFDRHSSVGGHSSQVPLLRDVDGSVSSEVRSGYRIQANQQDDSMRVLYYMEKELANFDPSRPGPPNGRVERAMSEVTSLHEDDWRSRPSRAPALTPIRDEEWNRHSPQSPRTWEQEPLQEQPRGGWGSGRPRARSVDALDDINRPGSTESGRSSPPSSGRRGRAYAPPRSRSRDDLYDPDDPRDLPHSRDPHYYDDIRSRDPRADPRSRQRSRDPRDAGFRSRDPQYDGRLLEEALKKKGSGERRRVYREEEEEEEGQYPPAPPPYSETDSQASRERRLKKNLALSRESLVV

Sequence of LSR alpha subunit (68 kDa) (rat) (Q9WU74 whole entry): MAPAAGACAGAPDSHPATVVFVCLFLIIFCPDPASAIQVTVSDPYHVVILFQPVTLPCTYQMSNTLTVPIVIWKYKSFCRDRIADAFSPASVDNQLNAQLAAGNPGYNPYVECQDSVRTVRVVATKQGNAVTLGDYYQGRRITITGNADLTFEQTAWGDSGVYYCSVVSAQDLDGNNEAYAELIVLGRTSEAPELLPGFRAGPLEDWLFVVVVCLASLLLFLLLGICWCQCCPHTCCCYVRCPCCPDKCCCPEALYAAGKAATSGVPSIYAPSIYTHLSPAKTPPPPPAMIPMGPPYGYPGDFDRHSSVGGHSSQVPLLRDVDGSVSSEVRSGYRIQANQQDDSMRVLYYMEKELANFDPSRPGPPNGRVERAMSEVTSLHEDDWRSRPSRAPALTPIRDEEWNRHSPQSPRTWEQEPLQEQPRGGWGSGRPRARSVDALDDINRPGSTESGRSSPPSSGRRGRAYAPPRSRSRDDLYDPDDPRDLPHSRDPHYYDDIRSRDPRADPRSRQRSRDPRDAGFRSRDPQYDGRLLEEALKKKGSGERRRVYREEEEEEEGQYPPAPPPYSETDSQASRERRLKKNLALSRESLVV

fold enhancement of binding in the presence of oleate [1]: 2 fold
fold enhancement of binding in the presence of oleate [2]: 5 fold
Substance: LDL (low density lipoprotein) (ligand)
